Here are results for 15 molecules from article PMC5513711, “Noroviruses Co-opt the Function of Host Proteins VAPA and VAPB for Replication via a Phenylalanine–Phenylalanine-Acidic-Tract-Motif Mimic in Nonstructural Viral Protein NS1/2” (mBio, 2017).

In data set [1] the target is NS1/2^MNoV (strain not told; partner of the VAPA mutants in Fig. 4A and 4C). Kind of data set: mammalian 2-hybrid (M2H). The conditions noted are these: for response: read off a plot.
Data set [2] concerns the molecule itself. In words: SEC + other: diffusion NMR; VAPA 8-226 in solution; dimer.
Data set [3] concerns the molecule itself. Kind of data set: not stated; VAPA 133-226 in solution; dimeric size, method not given.

Where two headings read alike, the source gives them in different places.

Consider “VAPA (mammalian 2-hybrid construct) (from UniProt Q9WV55) K125E; R127E”, for which, in data set [1], the other: Fold Change came out at 0.84. Besides, the response in data set [1] (parent: est. 140) is 23 %fluc/Rluc.
The like results for “VAPA (mammalian 2-hybrid construct) (from UniProt Q9WV55) K161E; H163E” were, in that order, 2.43 and 80 %fluc/Rluc.
In data set [1] (n = 3), “VAPA (mammalian 2-hybrid construct) (from UniProt Q9WV55) M96A” gave an other: Fold Change of 2.72. Besides, the response in data set [1] (n = 3, parent: est. 170) stood at 63 %fluc/Rluc.
Molecule “VAPA (mammalian 2-hybrid construct) (from UniProt Q9WV55) N64A” displayed an other: Fold Change in data set [1] (n = 3) of 3.82. The response in data set [1] (n = 3, parent: est. 170) was found to be 100 %fluc/Rluc.
As for “VAPA (mammalian 2-hybrid construct) (from UniProt Q9WV55) R62A”, the other: Fold Change in data set [1] (n = 3) came to 3.26. Also, the response in data set [1] (n = 3, parent: est. 170) was 80 %fluc/Rluc.
As to “VAPA (mammalian 2-hybrid construct) (from UniProt Q9WV55) R62E”, the other: Fold Change in data set [1] (n = 3) was determined as 1.64. Moreover, the response in data set [1] (n = 3, parent: est. 170) came out at 34 %fluc/Rluc.
Regarding “VAPA (mammalian 2-hybrid construct) (from UniProt Q9WV55) R127A”, the other: Fold Change in data set [1] (n = 3) was 3.1. The response in data set [1] (n = 3, parent: est. 170) was determined as 77 %fluc/Rluc.
Regarding “VAPA (mammalian 2-hybrid construct) (from UniProt Q9WV55) R127E”, the other: Fold Change in data set [1] (n = 3) is 2.53. Moreover, the response in data set [1] (n = 3, parent: est. 170) was 40 %fluc/Rluc.
In turn, “VAPA (mammalian 2-hybrid construct) (from UniProt Q9WV55) R202E; R204E” returned an other: Fold Change in data set [1] of 2.78. Also, the response in data set [1] (parent: est. 140) is 74 %fluc/Rluc.
For “VAPA (mammalian 2-hybrid construct) (from UniProt Q9WV55) T53A”, in data set [1] (n = 3), the other: Fold Change was 2.94. For the same molecule, the response in data set [1] (n = 3, parent: est. 170) is 75 %fluc/Rluc.
Take “VAPA (mammalian 2-hybrid construct) (from UniProt Q9WV55) T54A”: the other: Fold Change in data set [1] (n = 3) came out at 1.78. Also, in data set [1] (n = 3, parent: est. 170), the response came out at 44 %fluc/Rluc.
In turn, “VAPA (mammalian 2-hybrid construct) (from UniProt Q9WV55) V51A” had an other: Fold Change in data set [1] (n = 3) of 1.66. Further, the response in data set [1] (n = 3, parent: est. 170) is 32 %fluc/Rluc.
As to “VAPA (mammalian 2-hybrid construct) (from UniProt Q9WV55) V61A”, the other: Fold Change in data set [1] (n = 3) came to 7.18. Moreover, in data set [1] (n = 3, parent: est. 170), the response amounted to 190 %fluc/Rluc.

B1: VAPA MSP domain with linker and coiled-coil domain (8–226) (domain or fragment)
chain: MAKHEQILVLDPPSDLKFKGPFTDVVTTNLKLQNPSDRKVCFKVKTTAPRRYCVRPNSGIIDPGSIVTVSVMLQPFDYDPNEKSKHKFMVQTIFAPPNISDMEAVWKEAKPDELMDSKLRCVFEMPNENDKLNDMEPSKAVPLNASKQDGPLPKPHSVSLNDTETRKLMEECKRLQGEMMKLSEENRHLRDEGLRLRKVAHSDKPGSTSAVSFRDNVTS
notes: murine VAPA, MSP domain with linker and coiled-coil domain, residues 8-226; Natural abundance (unlabeled) in the titrations of 15N NS1; also called VAPA (M8–S226 of VAPA); unlabeled VAPA; source: E. coli, purified
As usually defined, the stoichiometry N is a count of units in the complex or per binding partner. With B1, in data set [2], the “stoichiometry N” value is 2.

B2: VAPA fragment (133–226), isolated coiled-coil domain (domain or fragment)
chain: PNENDKLNDMEPSKAVPLNASKQDGPLPKPHSVSLNDTETRKLMEECKRLQGEMMKLSEENRHLRDEGLRLRKVAHSDKPGSTSAVSFRDNVTS
notes: murine VAPA, linker and coiled-coil domain, residues 133-226; also called coiled-coil domain (P133–S226 of VAPA); CCD; source: E. coli, purified
For the molecule B2, the “stoichiometry N” value in data set [3] stood at 2.
